Here are results for 1 substance from patent publication US20210246507A1.

This assay deals with human C3b (human) (UniProt P01024). The assay is described as follows: SPR (Biacore 3000), human C3b amine-coupled to CM5 chip, FHR-4 injected at 1 to 100 µg/ml, 1:1 Langmuir fit.
Chain of UniProt P01024 (P01024 23-667 limits assumed, chain 1 of 2): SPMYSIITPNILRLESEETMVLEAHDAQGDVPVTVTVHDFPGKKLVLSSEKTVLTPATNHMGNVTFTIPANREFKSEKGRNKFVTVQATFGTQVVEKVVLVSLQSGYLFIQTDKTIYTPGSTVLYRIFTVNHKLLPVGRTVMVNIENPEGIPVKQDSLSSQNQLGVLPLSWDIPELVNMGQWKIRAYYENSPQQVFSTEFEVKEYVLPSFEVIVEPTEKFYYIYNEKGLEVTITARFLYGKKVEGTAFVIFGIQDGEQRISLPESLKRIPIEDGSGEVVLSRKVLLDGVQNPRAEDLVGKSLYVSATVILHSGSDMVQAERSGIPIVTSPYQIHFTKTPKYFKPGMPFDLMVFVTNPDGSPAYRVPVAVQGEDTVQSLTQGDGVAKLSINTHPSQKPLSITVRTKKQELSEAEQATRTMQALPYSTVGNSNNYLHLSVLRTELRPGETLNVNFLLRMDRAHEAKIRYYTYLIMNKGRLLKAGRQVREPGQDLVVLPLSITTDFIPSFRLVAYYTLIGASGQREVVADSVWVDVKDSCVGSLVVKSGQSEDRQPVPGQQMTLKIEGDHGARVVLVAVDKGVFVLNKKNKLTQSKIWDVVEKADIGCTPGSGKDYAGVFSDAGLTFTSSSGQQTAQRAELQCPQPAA
Chain of UniProt P01024 (P01024 749-1663 limits assumed, chain 2 of 2): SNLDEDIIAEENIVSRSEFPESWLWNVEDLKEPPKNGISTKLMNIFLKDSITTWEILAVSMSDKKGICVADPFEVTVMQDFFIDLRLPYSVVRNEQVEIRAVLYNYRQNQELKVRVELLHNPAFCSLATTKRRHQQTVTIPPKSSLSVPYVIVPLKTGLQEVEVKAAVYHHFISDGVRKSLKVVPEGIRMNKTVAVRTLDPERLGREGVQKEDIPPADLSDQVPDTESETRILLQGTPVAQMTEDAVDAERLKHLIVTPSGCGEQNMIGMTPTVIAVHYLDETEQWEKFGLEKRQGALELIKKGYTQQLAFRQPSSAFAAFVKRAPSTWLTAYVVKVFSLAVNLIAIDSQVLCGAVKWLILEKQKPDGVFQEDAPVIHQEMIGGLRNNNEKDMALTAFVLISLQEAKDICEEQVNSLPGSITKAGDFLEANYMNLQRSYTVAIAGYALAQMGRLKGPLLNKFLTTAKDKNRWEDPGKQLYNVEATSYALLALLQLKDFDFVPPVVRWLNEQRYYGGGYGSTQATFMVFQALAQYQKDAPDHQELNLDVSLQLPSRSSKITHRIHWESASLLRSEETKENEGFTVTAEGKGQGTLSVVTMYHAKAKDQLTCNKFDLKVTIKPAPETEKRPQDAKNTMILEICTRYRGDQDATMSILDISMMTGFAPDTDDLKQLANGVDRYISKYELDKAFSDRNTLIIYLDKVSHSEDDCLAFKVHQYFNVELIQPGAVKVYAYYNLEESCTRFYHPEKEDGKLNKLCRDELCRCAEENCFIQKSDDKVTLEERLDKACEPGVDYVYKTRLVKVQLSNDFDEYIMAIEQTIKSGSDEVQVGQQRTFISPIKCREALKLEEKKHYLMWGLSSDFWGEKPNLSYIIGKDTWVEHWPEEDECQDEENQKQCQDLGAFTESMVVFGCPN

Regarding “complement factor H-related protein 4 (FHR-4) (from UniProt Q92496 20-578)”, the Kd amounted to 1100 nM.

For orientation: Kd means the constant that tells how readily two partners part at equilibrium. A high value points to weaker binding.
